Reference: patent US20250186633A1, “METHODS FOR IMAGING INTEGRIN EXPRESSION AND FOR IMAGING SITES OF ENDOMETRIOSIS” (SERAC HEALTHCARE LTD, priority 2022, published 2025)
Starred links: 1 amine or outer side, 2 acyl side, 3 side chain; linkers in the order of their positions; H or OH if unused. Positions of bridges follow the written chain, without caps; N, C: chain ends. Residues, ends and D or L forms follow the SMILES beside them. Groups on a side chain read outwards from the residue. *: point of attachment. X1 = C/C(=N/O)C(C)(C)NCCC(CCNC(C)(C)/C(C)=N\O)CCN*; Glutaryl = O=C(CCCC(=O)[*:2])[*:1]; X2 = NC(=O)COCC(=O)NCCOCCOCCOCCN*

What was measured:
endometrial lesions = conditions: rat, in vivo
Description: (§1) A rat surgical model of endometriosis was used, together with immunocompromised mouse and isogenic mouse models—all 3 animal models of endometriosis are as described by Story, L. ILAR J., 45(2) 132-138 (2004).
(§2) The uptake of ^99mTc-maraciclatide was compared with that of ^99mTc-[…]. NC100667 is described by Edwards et al [D. Edwards, Nucl.Med.Biol., 35, 365-375 (2008)]. NC100667 is a negative control peptide, in which the arginine residue of the RGD binding motif of maraciclatide (NC100692) was replaced with an alanine residue. Thus, only one amino acid residue was changed—all other aspects of the agent were otherwise the same.

endometrial lesion = conditions: mouse, in vivo
Description: as §1, §2

endometriosis lesions = system: endometriosis lesions; design: species or system rat, mouse; conditions: in vivo
Description: as §1, §2

## C/C(=N/O)C(C)(C)NCCC(CCNC(=O)CCCC(=O)NCCCC[C@@H]1NC(=O)CSC[C@@H](C(=O)NCCOCCOCCOCCNC(=O)COCC(N)=O)NC(=O)[C@H](Cc2ccccc2)NC(=O)[C@@H]2CSSC[C@H](NC1=O)C(=O)N[C@@H](CCCNC(=N)N)C(=O)NCC(=O)N[C@@H](CC(=O)O)C(=O)N2)CCNC(C)(C)/C(C)=N\O (stereo partly drawn) [^99mTc-maraciclatide, metal not drawn] ({CH2CO}-K([Glutaryl-X1])CRGDCFC-X2; disulfide 2-6; thioether N-8)
Endometrial lesions
  uptake in endometrial lesions versus control lesions of abdominal fat: higher compared to control lesions of abdominal fat
Endometrial lesion
  ratio of endometriotic lesion to blood: 4.0
  ratio of endometriotic lesion to muscle: 8.3
  retention in ovaries and uterine horns: ~35%
  uptake in endometrial lesion, time course at 1, 2 or 3 weeks post implantation: greatest at one week post uterine horn inoculation
Endometriosis lesions
  uptake and retention in animal models of endometriosis: demonstrated in all experimental animal models of endometriosis
